Measured values published in a protein production outcome set (Wang et al. 2014).

Assay: label from the status in PepcDB records

Sequence: MRKNDIADISPRDPMLALVLLTRLPLPALPEAAFARQAAAVWAFPLAGLAVGALAWATGALALAAGLAPVAVAGLMLVVLVMTTGGMHEDGLADTADGLWGGFTPERRLEIMKDSHIGTYGVLALILSQGLRLAALSALVAGGALGAAVAAAVWSRALMPVLMAALPNARGTGLSQSVGRPTPQAVTLGLGLAAVLALLLAGWAVLIPALLAVLSVLGLAALARAKIGGQTGDILGAAQQLAEITCLLALSAAL
- protein production: failed

Sequence: MRKPIEHTADIAYEISGNSYEELLEEARNILLEEEGIVLDTEEKEKMYPLEETEDAFFDTVNDWILEISKGWAPWRIKREGNELKVTFRKIRKKEGTEIKALTYHLLKFERDGDVLKTKVVFDT
- protein production: not failed

Sequence: MRKRIEWIDIAKGSAILAVVIGHTLGPYNGQFFGSLIFAFHMPIFFMLSGYLYRSRPARQECQRGIINLLLPYLATAVVLLVVSAIARLLPNPLLNAYFPSWRQGLIATAYGAGSAVFNPWHWQVQPIGAVWFLLSMFIALQLFNGVMLLTARRHQRWRQAIVRGGVFAIFAILGGWLGHAAYLPWAVNAALLAQLFLYAGYLVKQTALLSRISSAWYLLFTFMWLVSAFQGYFALTVPTSPNLLISVMGGVAGSLCIIRVSDWLSHYPNARPIKWLKRYGQLSLVVLCFHLIDLNVIGIEGWLTNHLITHMGPLVTTIIAISYRIGFVTVAMLAIPHLPGIRACFLPRQYLFRRLQRR
- protein production: failed

Sequence: MRKRNPRRATPEELRVCSVLKEKGTREELAHLAARGEWSNVPAYNASREQIADHLGKSVSPESDASFFDSRRFSEAIVLLKSRPVLLVKNGIFDEAPLAGLEQRLKKHRAALATPIRSVGRLELIDHDSMDWCGTGWRIEDDLIVTNRHVASLFAERQGSLFRFRLNQAGKQVRTRVDFREEYRQPESDEHVIARVLWIAPDVSEAPDMAILQVVKGDLLPPPLVLARQDAEPRQAVAVVGYPARDSRNDAGAMEDIFGNIYDVKRFAPGEVVGLPHDAWYLTHDCSTLGGNSGSAVLSIDGGEVVGLHFGGQFRKTNYAVKASVIRSLLARRAWVPVAGAELKRGVPRFQEKQRSVADLAERKGFDEAFLGPKAALPKPGKSHQVLPVGKGTRLDYLHFSVVMSASRRLPILTAVNIDGALKRSLKRKDSWGFDPRIEAAAQVGHKDFYGPASFDKGHMVRREDPGWGDSDAVARQAEDDTFVYTNAVPQVAQLNQRSWLSLEDYVLQNARSEGFRISVFTGPVFRDDDPLYQGVQVPLEFWKVVAMIDADSGELGVSAYLLGQEGMMPSEGFRYGAFKTYQVPLAKVEASADLRFSSALRKADVLAGTPLEEALESGRFIEIDGPDDLLLSRPGPAGKGPLRFRPAAATRVAVR
- protein production: failed

Sequence: MRKTPSHTEKKMVYSIRSLKNGTGSVLIGASLVLLAMATPTISSDESTPTTNEPNNRNTTTLAQPLTDTAAGSGKNESDISSPGNANASLEKTEEKPAASPADPAPQTGQDRSSEPTTSTSPVTTETKAEEPIEDNYFRIHVKKLPEENKDAQGLWTWDDVEKPSENWPNGALSFKDAKKDDYGYYLDVKLKGEQAKKISFLINNTAGKNLTGDKSVEKLVPKMNEAWLDQDYKVFSYEPQPAGTVRVNYYRTDGNYDKKSLWYWGDVKNPSSAQWPDGTDFTATGKYGRYIDIPLNEAAREFGFLLLDESKQGDDVKIRKENYKFTDLKNHSQIFLKDDDESIYTNPYYVHDIRMTGAQHVGTSSIESSFSTLVGAKKEDILKHSNITNHLGNKVTITDVAIDEAGKKVTYSGDFSDTKHPYTVSYNSDQFTTKTSWRLKDETYSYDGKLGADLKEEGKQVDLTLWSPSADKVSVVVYDKNDPDKVVGTVALEKGERGTWKQTLDSTNKLGITDFTGYYYQYQIERQGKTVLALDPYAKSLAAWNSDDSKIDDAHKVAKAAFVDPAKLGPQDLTYGKIHNFKTREDAVIYEAHVRDFTSDPAIAKDLTKPFGTFEAFIEKLDYLKDLGVTHIQLLPVLSYYFVNELKNHERLSDYASSNSNYNWGYDPQNYFSLTGMYSSDPKNPEKRIAEFKNLINEIHKRGMGAILDVVYNHTAKVDLFEDLEPNYYHFMDADGTPRTSFGGGRLGTTHHMTKRLLIDSIKYLVDTYKVDGFRFDMMGDHDAASIEEAYKAARALNPNLIMLGEGWRTYAGDENMPTKAADQDWMKHTDTVAVFSDDIRNNLKSGYPNEGQPAFITGGKRDVNTIFKNLIAQPTNFEADSPGDVIQYIAAHDNLTLFDIIAQSIKKDPSKAENYAEIHRRLRLGNLMVLTAQGTPFIHSGQEYGRTKQFRDPAYKTPVAEDKVPNKSHLLRDKDGNPFDYPYFIHDSYDSSDAVNKFDWTKATDGKAYPENVKSRDYMKGLIALRQSTDAFRLKSLQDIKDRVHLITVPGQNGVEKEDVVIGYQITAPNGDIYAVFVNADEKAREFNLGTAFAHLRNAEVLADENQAGPVGIANPKGLEWTEKGLKLNALTATVLRVSQNGTSHESTAEEKPDSTPSKPEHQNEASHPAHQDPAPEARPDSTKPDAKVADAENKPSQATADSQAEQPAQEAQASSVKEAVRNESVENSSKENIPATPDKQAELPNTGIKNENKLLFAGISLLALLGLGFLLKNKKEN
- protein production: failed

Sequence: MRKVLVTVLLVLTVLSLFSAVKIAVILPMTGGISAFGRMVWEGIQIAHEEKPTVLGEEVELVLLDTRSEKTEAANAAARAIDKEKVLAIIGEVASAHSLAIAPIAEENKVPMVTPASTNPLVTQGRKFVSRVCFIDPFQGAAMAVFAYKNLGAKRVVVFTDVEQDYSVGLSNFFINKFTELGGQVKRVFFRSGDQDFSAQLSVAMSFNPDAIYITGYYPEIALISRQARQLGFTGYILAGDGADAPELIEIGGEAVEGLLFTTHYHPKAASNPVAKKFVEVYKEKYGKEPAALNALGYDAYMVLLDAIERAGSFDREKIAEEIRKTRNFNGASGIINIDENGDAIKSVVVNIVKNGSVDFEAVINPDDLK
- protein production: not failed

Sequence: MRLGPAATSPSSGPRILPPAAHGDPRTAALPRATHLQIHDRRALSGLRDHPHLESVHLKGDFTLADLKALPTTLRHLDLSECTGSAKSFRAIAYLAGLPLESLNVAGAEIGDGGARLLAANPSLKSLNAASGGISASGARMLAESPTLESLDLTQNAIGDAGAQALAGSRSLRHLAVRNGLVTDLGTRALALNPALVSLDLGNLVTETGNQVEQDGYDKTANNITAQGAWALAQNRSLKSLSVQGNDLCGDDGVRALARNRTLTSLNVAFTNMTSASAKALADNPVLTSLSVRWNYGLDDAGAMELAMSRSLTSLDARDTGMSARGALALAANARISVWHDHANPVRAPLGEPPLSGLAGDPGQASRTAPGGAIWSSAAQARHVSAEAPANSAMTASTREGFALIDPFFNRVARESGLNVQAPQEMPWTRLRPSASEANHGNAGAHGASAEGLASSRMAASIREGLGLIDQYVDRMGREYGLPVRAPAAQPDSAAPEATQPTLPADVWQTIAAQADPRVRRTLSTVSKPLRAAALAATKHLTVWDKAAFSRLRNYPALESLSFHGPLSLADLRALPPSVRHLDLSGCTGSAVSEAGLAYLARLPLASLDLSDTGIGNRGAQALAASASLTSLNLSGNGIGTAGAEALGRNTVLTALDISANPIRNAGAQALAGSRSLTSLELRDTGIEDGGIEALAANTVLRSLDISGNDLSDQSAAALAANRTLTSLKANGCGLTNDMAQQLARIRSLRTLEVGSNSIGDAGVLTIARNASLRSLNLSRNPITPQGLYPLALSRTLKSLDVSRIGCGDRGALLLSGNRALTSLKLGFNRVSSEGARRLAANRTLVSLDLRGNTIDVAAARALANAEPLASLNVSDCRLDDAVACALAESRTLTSLDVSWNRLSHRAARALANNPVLASLYISHNDIGPEGAQALADSASLTFLDARANRIGEAGARLLEANTRMRGTPQNPHFLAQDVPE
- protein production: failed

Sequence: MRLISKPVLCNYYVTYRCNATCGFCDIWEKPSPYVTPEAVEQNMRDLKKLGVKVIDFTGGEPLLHREMDTLLRIAKKYGMITTLTTNALLYPKWAERLKGLIDMLHFSLDSPDKAEHDTLRGVACFDFVLESIEKAKALG
- protein production: failed

Sequence: MRLKDLGERALLARLAPLGYPPEAPLPPGDDAGGVWAEGRAWLLKTDGFLYREVALKGMGPFEVGFRGVAATASDLLAKMGRPLGFTLGLFLPEDLEEGFVLELVRGAAEAAKRLGAFLLGGDTNRGVEVALTVSGYALAEAPLPRKALPGDLLYLAGDRWGRTGAAIRAHYEGRSLEGFPKIREAAFYPLPRLELLALSGLLRGSLDSSDGLAETLWQLADLGVGVEVEALPLYPDVLAFAGSEEAALELVLYGGEEFEAVLVVPQEGAAAVEARAKAKGLPLFRAGRVVAGEGVYLRGAPLPRKGYAHF
- protein production: not failed

Sequence: MRLRLLSLPFILSLCAPLLPLNTLAAERIVTIGGDVTEIAYALGAGDEIVARDSTSQQPQAAQKLPDVGYMRTLNAEGILAMKPTMLLVSELAQPSLVLTQIASSGVNVVTVPGQTTPESVAMKINAVATALHQTEKGQKLIEDYQQRLAAVNKTPLPVKVLFVMSHGGLTPMAAGQNTAADAMIRAAGGSNAMQGFSRYRPLSQEGVIASAPDLLLITTDGVKALGSSENIWKLPGMALTPAGKHKRLLVVDDMALLGFGLETPQVLAQLREKMEQMQ
- protein production: failed

Sequence: MRLSRGVFLLLLLLALASPLMIVGCGGPSFLPAASLRDPSVDMAWPPAPNPARIRFLREISGPEQVKAEPGAIARFLEFVTGEQFKHVPFVTPYGVVSDGGTLLFVSDSSSGVVHRIDLARQKVSYIVRAGDEFLSSPVGLALSPSGDLYVSDSVNAKVYVFSRDGEFLRVLADGQVDFKRPAGLAVNSKGVLFVVDVLAHKLKVFNVSGRFLGDFPPDDIGGKLNLPSHVAVDKDDKVYVTDALNFTVKVYDSARRYLRSIGEIGDAPGSFARPRGVAVDSDLNVYVIDAAFDNFQIFNQEGQLLLFVGKPGKKSGEFYMPSGIHIDRNDRIFISDSYNRRVQVFEYLKEENR
- protein production: failed

Sequence: MRMLKTGLLNFISVLVKVITGLFLNKIMALYVGPAGYALVSQFQNGINFITTFASGAINTGVTKYTAEYANDKGKTSDLFKCITLLAITCCSFFSLTIIVFSEYFSLKLLGTINYSGVIKWFAATLFLFVANSILVSIINGLKEFKLYVLINIFGSLFSLLFSGILIYFFNLKGALIAFATNQSIVFFMTFYLIISKKMVSLKSFIGMPSDFYFIKKLIQYALMAIVSAFCVIYMQIIIRTYIANHFGWVQAGIWDGVWRISSLYLMLVTVPLGVYYLPRLAELHTKSLLLREIKQGYLFLLPIIIISAIIIYYLRYFIIELLFSKSFVSMGDIIGWQLLGDIFKIGSWLLSYIMLSKALTKTYIITEITTALLFLGGVHYLSPLYGLKGVTLAYCITYFCYWIMMIVVIISYFKGNFRNE
- protein production: failed

Sequence: MRMPDRTDVCVLLPTLNESETIGDVVGGFYDHGFEHVLVVDGDSTDGTRAIAREHGARVITQSGSGKGQAVREGVEQIDQPYVLMADGDGTYRPEDADKMLTPLFAGRAEHVIGDRFADMEAGAMTRLNAVGNRLINRLFATIHGRDLQDILSGYRAFTTQSFERSKLSADGFGIETELAVECVRRGVSTAVVPIRYEARPGGSETNLHPLKDGGRILLTLYRLARMNNPIFYFGSVAAVGTAGGVALGAFVGYRYLTAGVSHEVLALLAAFLVLLSVQLLMFGVLSDIIVSIHREQTRRLDDIADQLEEQNDE
- protein production: failed

Sequence: MRMRYQGRLSDWNDHKGFGFVTPHGGGDRAFVHISAFAQQTRRPRDGEIITYAIERDAHKRLNATQVRWADRTTAARTEQRRSGLPRKTLAAVSMLALAAATLMHVLPVIVPLWYAAASLVTLLIYAMDKSAAQRNQWRTPESSLHLLALIGGWPGALLAQEIHRHKCSKAAFQLTFWLTVALNVSALVLAVTETDLMATLPAVFD
- protein production: failed

Sequence: MRMTLRQLRIFNEVCDLRSYSRAAEEMSLTQPAVSLQVRQLEELIGQPLFEYVGKKLYMTEAAEALQLASRDIFGRLESLDMQLSDMQGSLQGQLKLAVESSCKYFIPHLFAAFKRQHPEVSLSLMVVNRAQIIRRLSDNRDDLVVMSAVPLDMGLEFLPFLNNPIVAVAPPDHPLSSRETLSLKDLEPWPLLTRETGSGTRRACEEYFKEKRVHFTQTLEVSSSEAQRECVVAGLGLAMLTRHAVCQELATGTLVELPVAELPLYRSWCVVQARDKRLSPVAHAFLAFIRTERAQISQLVERFDGRPQAV
- protein production: failed
